Results from article PMC9352680, “A comprehensive thermodynamic model for RNA binding by the Saccharomyces cerevisiae Pumilio protein PUF4”.

biological target: T1, PUF4 RNA-binding domain (Saccharomyces cerevisiae, UniProt P25339 537-888); experiment: Mg; RNA-MaP; 20 mM Na-HEPES pH 7.4, 30 mM KOAc, 0.75 mM MgCl2, 0.1% Tween-20, 5% glycerol, 0.1 mg/mL BSA, 2 mM DTT; 25 C; 0.0125-409.6 nM protein; conditions: tags: N-His6-TEV cleaved; C-SNAP kept, Cy3B-labelled; label: tethered on chip by stalled RNA polymerase
T1 sequence: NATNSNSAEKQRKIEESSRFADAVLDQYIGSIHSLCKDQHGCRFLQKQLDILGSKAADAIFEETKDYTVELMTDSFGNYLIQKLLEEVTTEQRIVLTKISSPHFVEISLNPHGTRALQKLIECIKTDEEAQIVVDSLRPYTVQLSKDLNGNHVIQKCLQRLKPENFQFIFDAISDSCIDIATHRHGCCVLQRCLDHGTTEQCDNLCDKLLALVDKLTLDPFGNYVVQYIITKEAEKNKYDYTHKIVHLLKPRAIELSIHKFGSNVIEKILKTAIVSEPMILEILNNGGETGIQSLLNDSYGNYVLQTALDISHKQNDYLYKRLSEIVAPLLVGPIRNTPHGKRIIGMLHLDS

| Binder | Kd [nM] |
| --- | --- |
| UCUCUUCCUAUAUAUUAUAUCUCUU (ssRNA) [Id_ii_S1_P4E.3_K4.2_C4.2_[T-1C]_H4.2_A4.1_F4.1_T4.2_[G10T]_[T11A]] | 14.5 |
| UCUCUUCCUAUAUAUUAAGUCUCUU (ssRNA) [Id_ii_S1_P4E.3_K4.2_C4.2_[T-1C]_H4.2_A4.1_F4.1_T4.2_[G10A]_[T11G]] | 87.6 |
| UCUCUUAUUAUAUAUUACUUCUCUU (ssRNA) [Id_ii_S1_P4E.3_K4.2_C4.2_[C-2A]_H4.2_A4.1_F4.1_T4.2_[G10C]] | 20.1 |
| UCUCUUCAUAUAUAUUACAUCUCUU (ssRNA) [Id_ii_S1_P4E.3_K4.2_C4.2_[T-1A]_H4.2_A4.1_F4.1_T4.2_[G10C]_[T11A]] | 27.8 |
| UCUCUUGCACACUAUUACGUCUCUU (ssRNA) [Id_ii_S1_P4E.4_K4.3_C4.2_[C-2G]_[T-1C]_H4.3_A4.1_F4.1_T4.2_[G10C]_[T11G]] | 408 |
| UCUCUUGCACACUAUUAUAUCUCUU (ssRNA) [Id_ii_S1_P4E.4_K4.3_C4.2_[C-2G]_[T-1C]_H4.3_A4.1_F4.1_T4.2_[G10T]_[T11A]] | 351 |
| UCUCUUCGUAUAUAUUAAGUCUCUU (ssRNA) [Id_ii_S1_P4E.3_K4.2_C4.2_[T-1G]_H4.2_A4.1_F4.1_T4.2_[G10A]_[T11G]] | 101 |
| UCUCUUAUUAUAUAUUAUGUCUCUU (ssRNA) [Id_ii_S1_P4E.3_K4.2_C4.2_[C-2A]_H4.2_A4.1_F4.1_T4.2_[G10T]_[T11G]] | 18.8 |
| UCUCUUCUUAUAUAUUAUUUCUCUU (ssRNA) [Id_ii_S1_P4E.3_K4.2_C4.2_H4.2_A4.1_F4.1_T4.2_[G10T]] | 15.7 |
| UCUCUUCGUAUAUAUUAGUUCUCUU (ssRNA) [Id_ii_S1_P4E.3_K4.2_C4.2_[T-1G]_H4.2_A4.1_F4.1_T4.2] | 8.31 |
| UCUCUUGCACACUAUUAUUUCUCUU (ssRNA) [Id_ii_S1_P4E.4_K4.3_C4.2_[C-2G]_[T-1C]_H4.3_A4.1_F4.1_T4.2_[G10T]] | 71 |
| UCUCUUAUUAUAUAUUAUCUCUCUU (ssRNA) [Id_ii_S1_P4E.3_K4.2_C4.2_[C-2A]_H4.2_A4.1_F4.1_T4.2_[G10T]_[T11C]] | 18.9 |
| UCUCUUCAUAUAUAUUAGAUCUCUU (ssRNA) [Id_ii_S1_P4E.3_K4.2_C4.2_[T-1A]_H4.2_A4.1_F4.1_T4.2_[T11A]] | 19.9 |
| UCUCUUUGUUUCUUAUCUCUU (ssRNA) [Ib_S1_P4E.1_K4.1_C4.1_H4.1_[A4T]_A4.1_[A6C]_F4.1_T4.1] | 370 |
| UCUCUUCAUAUAUAUUAGUUCUCUU (ssRNA) [Id_ii_S1_P4E.3_K4.2_C4.2_[T-1A]_H4.2_A4.1_F4.1_T4.2] | 8.18 |
| UCUCUUAUUAUAUAUUAAAUCUCUU (ssRNA) [Id_ii_S1_P4E.3_K4.2_C4.2_[C-2A]_H4.2_A4.1_F4.1_T4.2_[G10A]_[T11A]] | 72.4 |
| UCUCUUCGUAUAUAUUAAAUCUCUU (ssRNA) [Id_ii_S1_P4E.3_K4.2_C4.2_[T-1G]_H4.2_A4.1_F4.1_T4.2_[G10A]_[T11A]] | 51.6 |
| UCUCUUCCUAUAUAUUACGUCUCUU (ssRNA) [Id_ii_S1_P4E.3_K4.2_C4.2_[T-1C]_H4.2_A4.1_F4.1_T4.2_[G10C]_[T11G]] | 32.8 |
| UCUCUUCAUAUAUAUUACUUCUCUU (ssRNA) [Id_ii_S1_P4E.3_K4.2_C4.2_[T-1A]_H4.2_A4.1_F4.1_T4.2_[G10C]] | 21 |
| UCUCUUCUUAUAUAUUACUUCUCUU (ssRNA) [Id_ii_S1_P4E.3_K4.2_C4.2_H4.2_A4.1_F4.1_T4.2_[G10C]] | 18.3 |
| UCUCUUAUUAUAUAUUAAUUCUCUU (ssRNA) [Id_ii_S1_P4E.3_K4.2_C4.2_[C-2A]_H4.2_A4.1_F4.1_T4.2_[G10A]] | 25.6 |

| Binder | Kd [nM] |
| --- | --- |
| UCUCUUCUUAUAUAUUAAAUCUCUU (ssRNA) [Id_ii_S1_P4E.3_K4.2_C4.2_H4.2_A4.1_F4.1_T4.2_[G10A]_[T11A]] | 43.5 |
| UCUCUUUGUGUAGUAUCUCUU (ssRNA) [Ib_S1_P4E.1_K4.1_C4.1_H4.1_[A4G]_A4.1_[T7G]_F4.1_T4.1] | 18.3 |
| UCUCUUCUUAUAUAUUAGCUCUCUU (ssRNA) [Id_ii_S1_P4E.3_K4.2_C4.2_H4.2_A4.1_F4.1_T4.2_[T11C]] | 7.8 |
| UCUCUUCAUAUAUAUUAGGUCUCUU (ssRNA) [Id_ii_S1_P4E.3_K4.2_C4.2_[T-1A]_H4.2_A4.1_F4.1_T4.2_[T11G]] | 18.2 |
| UCUCUUCAUAUAUAUUAUCUCUCUU (ssRNA) [Id_ii_S1_P4E.3_K4.2_C4.2_[T-1A]_H4.2_A4.1_F4.1_T4.2_[G10T]_[T11C]] | 25 |
| UCUCUUCCUAUAUAUUAAUUCUCUU (ssRNA) [Id_ii_S1_P4E.3_K4.2_C4.2_[T-1C]_H4.2_A4.1_F4.1_T4.2_[G10A]] | 27.1 |
| UCUCUUUGUUUUUUAUCUCUU (ssRNA) [Ib_S1_P4E.1_K4.1_C4.1_H4.1_[A4T]_A4.1_[A6T]_F4.1_T4.1] | 100 |
| UCUCUUGCACACUAUUAUCUCUCUU (ssRNA) [Id_ii_S1_P4E.4_K4.3_C4.2_[C-2G]_[T-1C]_H4.3_A4.1_F4.1_T4.2_[G10T]_[T11C]] | 91.3 |
| UCUCUUCAUAUAUAUUAAUUCUCUU (ssRNA) [Id_ii_S1_P4E.3_K4.2_C4.2_[T-1A]_H4.2_A4.1_F4.1_T4.2_[G10A]] | 36.3 |
| UCUCUUCUUAUAUAUUACGUCUCUU (ssRNA) [Id_ii_S1_P4E.3_K4.2_C4.2_H4.2_A4.1_F4.1_T4.2_[G10C]_[T11G]] | 16.6 |
| UCUCUUUGUAUUACUAUCUCUU (ssRNA) [Ia_S1_P5E.1_K5.1_C5.1_H5.1_A5.1_F5.1_[T8C]_T5.1] | 9.98 |
| UCUCUUAUUAUAUAUUAUUUCUCUU (ssRNA) [Id_ii_S1_P4E.3_K4.2_C4.2_[C-2A]_H4.2_A4.1_F4.1_T4.2_[G10T]] | 9.53 |
| UCUCUUCGUAUAUAUUAACUCUCUU (ssRNA) [Id_ii_S1_P4E.3_K4.2_C4.2_[T-1G]_H4.2_A4.1_F4.1_T4.2_[G10A]_[T11C]] | 29.9 |
| UCUCUUCAUAUAUAUUAUUUCUCUU (ssRNA) [Id_ii_S1_P4E.3_K4.2_C4.2_[T-1A]_H4.2_A4.1_F4.1_T4.2_[G10T]] | 21.2 |
| UCUCUUCUUAUAUAUUAAUUCUCUU (ssRNA) [Id_ii_S1_P4E.3_K4.2_C4.2_H4.2_A4.1_F4.1_T4.2_[G10A]] | 18.9 |
| UCUCUUGCACACUAUUACAUCUCUU (ssRNA) [Id_ii_S1_P4E.4_K4.3_C4.2_[C-2G]_[T-1C]_H4.3_A4.1_F4.1_T4.2_[G10C]_[T11A]] | 99.1 |
| UCUCUUGCACACUAUUAACUCUCUU (ssRNA) [Id_ii_S1_P4E.4_K4.3_C4.2_[C-2G]_[T-1C]_H4.3_A4.1_F4.1_T4.2_[G10A]_[T11C]] | 69.5 |
| UCUCUUCGUAUAUAUUAUUUCUCUU (ssRNA) [Id_ii_S1_P4E.3_K4.2_C4.2_[T-1G]_H4.2_A4.1_F4.1_T4.2_[G10T]] | 21.9 |
| UCUCUUCGUAUAUAUUAGCUCUCUU (ssRNA) [Id_ii_S1_P4E.3_K4.2_C4.2_[T-1G]_H4.2_A4.1_F4.1_T4.2_[T11C]] | 9.29 |
| UCUCUUCAUAUAUAUUAACUCUCUU (ssRNA) [Id_ii_S1_P4E.3_K4.2_C4.2_[T-1A]_H4.2_A4.1_F4.1_T4.2_[G10A]_[T11C]] | 39.7 |
| UCUCUUCCUAUAUAUUAACUCUCUU (ssRNA) [Id_ii_S1_P4E.3_K4.2_C4.2_[T-1C]_H4.2_A4.1_F4.1_T4.2_[G10A]_[T11C]] | 29.3 |

| Binder | Kd [nM] |
| --- | --- |
| UCUCUUUGUGUACUAUCUCUU (ssRNA) [Ib_S1_P4E.1_K4.1_C4.1_H4.1_[A4G]_A4.1_[T7C]_F4.1_T4.1] | 6.14 |
| UCUCUUCCUAUAUAUUAUCUCUCUU (ssRNA) [Id_ii_S1_P4E.3_K4.2_C4.2_[T-1C]_H4.2_A4.1_F4.1_T4.2_[G10T]_[T11C]] | 18.5 |
| UCUCUUCCUAUAUAUUACUUCUCUU (ssRNA) [Id_ii_S1_P4E.3_K4.2_C4.2_[T-1C]_H4.2_A4.1_F4.1_T4.2_[G10C]] | 20.1 |
| UCUCUUUGUGUAAUAUCUCUU (ssRNA) [Ib_S1_P4E.1_K4.1_C4.1_H4.1_[A4G]_A4.1_[T7A]_F4.1_T4.1] | 10.4 |
| UCUCUUCAUAUAUAUUACGUCUCUU (ssRNA) [Id_ii_S1_P4E.3_K4.2_C4.2_[T-1A]_H4.2_A4.1_F4.1_T4.2_[G10C]_[T11G]] | 34.8 |
| UCUCUUAUUAUAUAUUAGCUCUCUU (ssRNA) [Id_ii_S1_P4E.3_K4.2_C4.2_[C-2A]_H4.2_A4.1_F4.1_T4.2_[T11C]] | 15.7 |
| UCUCUUUGUAUAUCUCUCUU (ssRNA) [Ia_S1_P3E.1_K3.1_C3.1_H3.1_A3.1_F3.1_[A8C]_T3.1] | 14.8 |
| UCUCUUCCUAUAUAUUAUUUCUCUU (ssRNA) [Id_ii_S1_P4E.3_K4.2_C4.2_[T-1C]_H4.2_A4.1_F4.1_T4.2_[G10T]] | 26.9 |
| UCUCUUAUUAUAUAUUAACUCUCUU (ssRNA) [Id_ii_S1_P4E.3_K4.2_C4.2_[C-2A]_H4.2_A4.1_F4.1_T4.2_[G10A]_[T11C]] | 44.1 |
| UCUCUUCUUAUAUAUUAUCUCUCUU (ssRNA) [Id_ii_S1_P4E.3_K4.2_C4.2_H4.2_A4.1_F4.1_T4.2_[G10T]_[T11C]] | 13.9 |
| UCUCUUGCACACUAUUACUUCUCUU (ssRNA) [Id_ii_S1_P4E.4_K4.3_C4.2_[C-2G]_[T-1C]_H4.3_A4.1_F4.1_T4.2_[G10C]] | 74.1 |
| UCUCUUCUUAUAUAUUAUAUCUCUU (ssRNA) [Id_ii_S1_P4E.3_K4.2_C4.2_H4.2_A4.1_F4.1_T4.2_[G10T]_[T11A]] | 27.7 |
| UCUCUUCAUAUAUAUUAGCUCUCUU (ssRNA) [Id_ii_S1_P4E.3_K4.2_C4.2_[T-1A]_H4.2_A4.1_F4.1_T4.2_[T11C]] | 8.31 |
| UCUCUUCUUAUAUAUUACAUCUCUU (ssRNA) [Id_ii_S1_P4E.3_K4.2_C4.2_H4.2_A4.1_F4.1_T4.2_[G10C]_[T11A]] | 13.5 |
| UCUCUUGCACACUAUUAAAUCUCUU (ssRNA) [Id_ii_S1_P4E.4_K4.3_C4.2_[C-2G]_[T-1C]_H4.3_A4.1_F4.1_T4.2_[G10A]_[T11A]] | 131 |
| UCUCUUCUUAUAUAUUAUGUCUCUU (ssRNA) [Id_ii_S1_P4E.3_K4.2_C4.2_H4.2_A4.1_F4.1_T4.2_[G10T]_[T11G]] | 12.2 |
| UCUCUUCCUAUAUAUUAAAUCUCUU (ssRNA) [Id_ii_S1_P4E.3_K4.2_C4.2_[T-1C]_H4.2_A4.1_F4.1_T4.2_[G10A]_[T11A]] | 30.4 |
| UCUCUUCCUAUAUAUUAUGUCUCUU (ssRNA) [Id_ii_S1_P4E.3_K4.2_C4.2_[T-1C]_H4.2_A4.1_F4.1_T4.2_[G10T]_[T11G]] | 21.1 |
| UCUCUUCCUAUAUAUUACCUCUCUU (ssRNA) [Id_ii_S1_P4E.3_K4.2_C4.2_[T-1C]_H4.2_A4.1_F4.1_T4.2_[G10C]_[T11C]] | 28 |
| UCUCUUCUUAUAUAUUAGUUCUCUU (ssRNA) [If_S1_P4E.3_K4.2_C4.2_H4.2_A4.1_F4.1_T4.2] | 7.55 |
| UCUCUUAUUAUAUAUUAUAUCUCUU (ssRNA) [Id_ii_S1_P4E.3_K4.2_C4.2_[C-2A]_H4.2_A4.1_F4.1_T4.2_[G10T]_[T11A]] | 26.5 |
